Assay results from patent US7595158B2, “Bcl2L12 polypeptide activators and inhibitors” (Dana-Farber Cancer Institute, Inc., priority 2003, dated 2009).

B1: Bcl2L12-V5-ΔBH2: V5 tagged mutant lacking amino acid residues 311-334 (BH2 domain) of human Bcl2L12; sequence 1-310 (protein)
chain: MGRPAGLFPPLCPFLGFRPEACWERHMQIERAPSVPPFLRWAGYRPGPVRRRGKVELIKFVRVQWRRPQVEWRRRRWGPGPGASMAGSEELGLREDTLRVLAAFLRRGEAAGSPVPTPPRSPAQEEPTDFLSRLRRCLPCSLGRGAAPSESPRPCSLPIRPCYGLEPGPATPDFYALVAQRLEQLVQEQLKSPPSPELQGPPSTEKEAILRRLVALLEEEAEVINQKLASDPALRSKLVRLSSDSFARLVELFCSRDDSSRPSRACPGPPPPSPEPLARLALAMELSRRVAGLGGTLAGLSVEHVHSFTP
modifications: left off: small tags and cut ends
B2: Bcl2L12-V5: Bcl2L12 polypeptide having the V5 epitope tag, ectopically expressed from pBabe-Bcl2L12-V5 vector; human amino acid sequence 1-334 (protein)
chain: MGRPAGLFPPLCPFLGFRPEACWERHMQIERAPSVPPFLRWAGYRPGPVRRRGKVELIKFVRVQWRRPQVEWRRRRWGPGPGASMAGSEELGLREDTLRVLAAFLRRGEAAGSPVPTPPRSPAQEEPTDFLSRLRRCLPCSLGRGAAPSESPRPCSLPIRPCYGLEPGPATPDFYALVAQRLEQLVQEQLKSPPSPELQGPPSTEKEAILRRLVALLEEEAEVINQKLASDPALRSKLVRLSSDSFARLVELFCSRDDSSRPSRACPGPPPPSPEPLARLALAMELSRRVAGLGGTLAGLSVEHVHSFTPWIQAHGGWEGILAVSPVDLNLPLD
modifications: left off: small tags and cut ends

Key:
[1] = test system: caspase-2; caspase-3/7; caspase-6; caspase-8; and caspase-9; experiment: Caspase activity with AFC-labeled peptides in lysates of STS-treated astrocytes; format: cell-based; details: for caspase activity (caspase-2, -3/7, -6, -8, -9): STS (500 nm) 24 hours
Procedure: The following experiment was performed to determine whether Bcl2L12 inhibits caspase activation. Briefly, a caspase activation profile was generated using fluorochrome-labeled peptides resembling the ideal cleavage sites for caspases-2 (VDVAF; SEQ ID NO:29), caspases-3/7 (DEVD; SEQ ID NO:27), caspase-6 (VEID; SEQ ID NO:31), caspase-8 (IETD; SEQ ID NO:30), and caspase-9 (LEHD; SEQ ID NO:28). Two confluent 15 cm dishes of astrocytes (pBabe or Bcl2L12-V5 transfected) were left untreated or treated with STS (500 nm) for 24 hours and lysed in a lysis buffer containing 1% Trition X-100. The lysed cells were then spun for 15 minutes at 14,000 rpm at 4° C. to obtain a postnuclear supernatant. The supernatants (standardized to 20 mg of protein) were incubated with 40 μM of AFC labeled peptide substrate for 1 hour at 37° C. The samples were read in a fluorescence plate reader, and the specific RFUs were calculated. In the presence of active caspases, the fluorogenic group AFC is released from the peptide, and its fluorescence can be quantified using a plate reader.
The mechanism of action of EGFR*, in contrast to Bcl2L12, stems from the activation of upstream survival pathways that converge to inhibit cytochrome c redistribution and subsequent caspase-9 processing (FIG. 8B), as reported previously (Nagane et al., Proc Natl Acad Sci USA 95:5724-9(1998)). In addition, the ability of Bcl2L12 polypeptide to inhibit effector caspase function is reflected in decreased levels of the caspase-9 p37 as a result of caspase-3-mediated cleavage intermediate (FIG. 8A, 16 hours; Fujita et al., Cell Death Differ. 8:335-44 (2001)). […] As a consequence of a caspase-3-mediated feedback mechanism (Fujita et al., Cell Death Differ. 8:335-44 (2001); Slee et al., J Cell Biol. 144, 281-92 (1999)), caspase-9 processing in later phases of apoptosis progression was enhanced (FIG. 8C, 16 hours). […] Caspase activities were determined fluorometrically using a fluorescence plate reader. […]

[2] = target: T1, Apaf-1 polypeptide (Homo sapiens, UniProt O14727); experiment: Co-immunoprecipitation of endogenous Apaf-1 in 293T cells; format: binding; details: anti-V5 immunoprecipitation from 293T cells
T1 construct: endogenous in cells; host or cells: 293T
T1 sequence (O14727 1-1248): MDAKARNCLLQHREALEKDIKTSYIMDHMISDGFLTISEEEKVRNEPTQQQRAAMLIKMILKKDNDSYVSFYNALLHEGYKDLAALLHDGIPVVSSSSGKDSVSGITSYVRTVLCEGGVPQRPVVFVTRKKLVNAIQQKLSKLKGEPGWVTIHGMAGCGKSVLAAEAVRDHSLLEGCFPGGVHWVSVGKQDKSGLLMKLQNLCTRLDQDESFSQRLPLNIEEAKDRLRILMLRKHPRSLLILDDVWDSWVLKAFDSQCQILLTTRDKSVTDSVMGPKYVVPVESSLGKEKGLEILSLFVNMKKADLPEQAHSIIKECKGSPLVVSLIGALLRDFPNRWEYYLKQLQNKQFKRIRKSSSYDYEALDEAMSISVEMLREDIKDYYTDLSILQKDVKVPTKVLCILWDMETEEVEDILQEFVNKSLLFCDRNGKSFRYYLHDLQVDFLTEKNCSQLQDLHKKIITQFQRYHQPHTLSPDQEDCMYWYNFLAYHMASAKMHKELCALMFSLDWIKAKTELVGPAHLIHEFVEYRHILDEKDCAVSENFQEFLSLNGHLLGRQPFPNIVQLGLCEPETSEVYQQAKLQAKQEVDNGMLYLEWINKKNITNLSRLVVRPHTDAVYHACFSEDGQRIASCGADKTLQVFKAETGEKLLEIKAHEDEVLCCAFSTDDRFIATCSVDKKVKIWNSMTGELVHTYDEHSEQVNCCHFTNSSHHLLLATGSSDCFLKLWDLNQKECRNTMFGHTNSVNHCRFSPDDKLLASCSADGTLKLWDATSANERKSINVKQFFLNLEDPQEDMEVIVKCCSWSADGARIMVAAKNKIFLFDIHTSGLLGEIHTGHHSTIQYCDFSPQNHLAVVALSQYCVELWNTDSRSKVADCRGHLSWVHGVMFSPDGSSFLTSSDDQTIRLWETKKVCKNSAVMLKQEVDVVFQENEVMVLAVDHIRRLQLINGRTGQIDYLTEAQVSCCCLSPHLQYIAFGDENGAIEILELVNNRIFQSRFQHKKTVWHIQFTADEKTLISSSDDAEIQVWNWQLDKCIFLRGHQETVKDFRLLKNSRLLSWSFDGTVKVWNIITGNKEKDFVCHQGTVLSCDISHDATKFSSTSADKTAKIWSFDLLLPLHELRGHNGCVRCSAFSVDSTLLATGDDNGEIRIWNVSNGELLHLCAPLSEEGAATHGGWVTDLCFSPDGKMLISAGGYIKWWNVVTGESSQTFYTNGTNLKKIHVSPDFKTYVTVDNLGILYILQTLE
Procedure: To confirm this interaction, 293T cells were used to test the physical interaction between Apaf-1 and Bcl2L12 polypeptides in vivo. […] To test the association between Apaf-1 and Bcl2L12 polypeptides in vivo, Bcl2L12-V5 polypeptides were expressed in 293T cells and immunoprecipitated with an anti-V5 antibody. The amount of co-immunoprecipitated endogenous Apaf-1 polypeptide then was determined by Western blot analysis.
To assess whether the BH2 domain is necessary for Apaf-1 binding, Bcl2L12-V5-ΔBH2 polypeptides were immunoprecipitated from 293T cells, and co-immunoprecipitated Apaf-1 was quantified as described.

Molecule | caspase activity (caspase-2, -3/7, -6, -8, -9) [1] | association with Apaf-1 polypeptide [2] | DEVDase activity ([1]; 0.5 μM STS, pBabe about 8500 RFUs)
B1 | even more pronounced inhibition | bound comparable levels of Apaf-1 polypeptide | 
B2 | significantly impaired | found to be associated | about 3500 RFUs
